In PMC5586343, “t‐Darpp is an elongated monomer that binds calcium and is phosphorylated by cyclin‐dependent kinases 1 and 5” (FEBS Open Bio, 2017):

Molecular target: the molecule itself
Assay: cross-linking; glutaraldehyde 0.1% (v/v) and 1% (v/v), 30 min at 25 °C, then SDS/PAGE; each protein alone and an equimolar mixture of t‐Darpp and Darpp‐32

B1: Darpp‐32 (dopamine‐ and cAMP‐regulated phosphoprotein) (natural protein, human, UniProt Q9UD71-1 1-204, looked up)
chain: MDPKDRKKIQFSVPAPPSQLDPRQVEMIRRRRPTPAMLFRLSEHSSPEEEASPHQRASGEGHHLKSKRPNPCAYTPPSLKAVQRIAESHLQSISNLNENQASEEEDELGELRELGYPREEDEEEEEDDEEEEEEEDSQAEVLKVIRQSAGQKTTCGQGLEGPWERPPPLDESERDGGSEDQVEDPALSEPGEEPQRPSPSEPGT
notes: Darpp‐32, longer isoform of PPP1R1B with 36 additional N-terminal residues compared with t‐Darpp; cDNA amplified from Darpp‐32/pET‐49 and cloned into pET‐28a; source: E. coli BL21 DE3, purified (Ni‐NTA)
- stoichiometry N: 2
